Data on five substances can be found in article PMC8187723.

pKd: −log10 of the molar value.

Broadly, the pKd is the Kd on a negative log10 scale, so that one unit is a factor of ten.

In the experiment the target is recombinant human MXRA8-Fc fusion protein (UniProt Q9BRK3). Conditions: 37 °C; n = 2; parent: est. 19; read off a plot.
In the case of “Ross River virus T48, CPER-recovered wild type, purified virus (E1/E2 envelope glycoproteins on the virion) E1:S98A”, the pKd was 7.52.
For “Ross River virus T48, CPER-recovered wild type, purified virus (E1/E2 envelope glycoproteins on the virion) E2:A71D” the value was 6.96; for “Ross River virus T48, CPER-recovered wild type, purified virus (E1/E2 envelope glycoproteins on the virion) E1:P226A”, 7.70.
For “Ross River virus T48, CPER-recovered wild type, purified virus (E1/E2 envelope glycoproteins on the virion) E2:H64A”, the pKd was 7.21.
For “Ross River virus T48, CPER-recovered wild type, purified virus (E1/E2 envelope glycoproteins on the virion) E1:N141Q” the value was 7.21.
